From patent publication US20150344570A1 (published 2015)

What was measured:
Assay in all cases: SPR (Biacore); KD of H240-Kn061/H240-Hl071/L73-k0 divided by KD of the variant
[1] = target: T1, FcgRIIb (FcγRIIb) extracellular domain with C-terminal His tag (human, UniProt P31994 43-217)
T1 construct: extracellular domain; not shown: His tag attached to the C terminus
T1 sequence (looked up): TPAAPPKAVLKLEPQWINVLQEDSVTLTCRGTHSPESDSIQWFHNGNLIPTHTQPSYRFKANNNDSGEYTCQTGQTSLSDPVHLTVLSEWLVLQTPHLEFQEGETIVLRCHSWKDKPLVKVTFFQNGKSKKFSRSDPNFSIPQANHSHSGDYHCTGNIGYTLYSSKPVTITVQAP
Experimental: (§1) The antibodies were assessed for the binding to each FcgR. […] The resultant value was defined as relative KD, and used as an assessment indicator.
(§2) Analysis of interaction between objective antibody and the FcγR was carried out using Biacore T100 (GE Healthcare), Biacore T200, Biacore A100, and Biacore 4000. HBS-EP+ (GE Healthcare) was used as the running buffer, and the measurement temperature was set to 25° C. Chips produced by immobilizing the antigen peptide by the amine coupling method to a Series S sensor Chip CM5 (GE Healthcare), chips produced by allowing preliminarily biotinylated antigen peptides to interact with and immobilize onto a Series S Sensor Chip SA (certified) (GE Healthcare), chips produced by immobilizing Protein L (ACTIGEN, BioVision) to Series S Sencor Chip CM5 (GE Healthcare), or chips produced by immobilizing Protein A/G (Thermo Scientific) to Series S Sencor Chip CM5 (GE Healthcare) were used. Antibodies of interest were captured onto these chips, and allowed to interact to each FcγR diluted with running buffer.

[2] = target: T2, FcgRIIa R (FcγRIIa type R) extracellular domain with C-terminal His tag (human, UniProt P12318 34-217)
T2 construct: extracellular domain; also called FcγRIIa R; not shown: His tag attached to the C terminus
T2 sequence (looked up): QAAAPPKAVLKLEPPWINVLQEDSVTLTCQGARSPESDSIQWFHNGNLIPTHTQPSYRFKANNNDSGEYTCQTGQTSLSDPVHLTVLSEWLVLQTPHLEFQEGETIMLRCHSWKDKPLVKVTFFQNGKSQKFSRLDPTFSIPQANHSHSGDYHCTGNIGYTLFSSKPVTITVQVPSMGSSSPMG
Experimental: as §1, §2

[3] = target: T3, FcgRIIIa V (FcγRIIIa type V) extracellular domain with C-terminal His tag (human, UniProt P08637 17-208)
T3 construct: extracellular domain; also called FcγRIIIa V; not shown: His tag attached to the C terminus
T3 sequence (P08637 17-208 F176V limits assumed): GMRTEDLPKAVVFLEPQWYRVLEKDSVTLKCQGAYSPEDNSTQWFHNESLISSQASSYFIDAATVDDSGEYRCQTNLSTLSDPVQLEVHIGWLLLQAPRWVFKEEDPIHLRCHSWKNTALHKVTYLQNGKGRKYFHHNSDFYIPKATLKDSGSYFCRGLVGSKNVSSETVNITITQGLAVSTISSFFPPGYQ
Experimental: as §1, §2

[4] = target: T4, FcgRIIa H (FcγRIIa type H) extracellular domain with C-terminal His tag (human, UniProt P12318 34-217)
T4 construct: extracellular domain; also called FcγRIIa H; not shown: His tag attached to the C terminus
T4 sequence (looked up): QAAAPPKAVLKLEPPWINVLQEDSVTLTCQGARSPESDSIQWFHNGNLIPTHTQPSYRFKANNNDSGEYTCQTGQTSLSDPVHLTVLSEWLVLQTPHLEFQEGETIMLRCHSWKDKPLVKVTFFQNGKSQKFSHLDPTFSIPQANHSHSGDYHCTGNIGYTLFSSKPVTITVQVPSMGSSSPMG
Experimental: as §1, §2

[5] = target: T5, FcgRIIIa F (FcγRIIIa type F) extracellular domain with C-terminal His tag (human, UniProt P08637 17-208)
T5 construct: extracellular domain; also called FcγRIIIa F; 3aF; not shown: His tag attached to the C terminus
T5 sequence (P08637 17-208): as the sequence (P08637 17-208 F176V limits assumed) above, with V160F counted along it
Experimental: as §1, §2

B1: H240-Kn061/H240-Hl071/L73-k0 variant with A231E in H240-Kn061 (antibody, human IgG1, kappa)
heavy 1: QDQLVQSGAEVKKPGASVKVSCKASGFNIKDTYIQWVRQAPGQGLEWMGRIDPLRKQTKYREKFEGRVTITADTSTNTAYMELSSLRSEDTAVYYCVRSGREFDYWGQGTLVTVSSASTKGPSVFPLAPSSKSTSGGTAALGCLVKDYFPEPVTVSWNSGALTSGVHTFPAVLQSSGLYSLSSVVTVPSSSLGTQTYICNVNHKPSNTKVDKKVEPKSCDKTHTCPPCPEPEYYWGPSVFLFPPKPKDTLMISRTPEVTCVVVDVSDEDPEVKFNWYVDGVEVHNAKTKPREEQYNATYRVVSVLTVLHQDWLNGKEYKCKVSNKALPAPIEKTISKAKGQPREPQVCTLPPSRDELTKNQVSLWCLVKGFYPSDIAVEWESNGQPENNYKTTPPVLDSDGSFFLYSKLTVDKSRWQQGNVFSCSVMHEALHNHYTQKSLSLSP
heavy 2: QDQLVQSGAEVKKPGASVKVSCKASGFNIKDTYIQWVRQAPGQGLEWMGRIDPLRKQTKYREKFEGRVTITADTSTNTAYMELSSLRSEDTAVYYCVRSGREFDYWGQGTLVTVSSASTKGPSVFPLAPSSKSTSGGTAALGCLVKDYFPEPVTVSWNSGALTSGVHTFPAVLQSSGLYSLSSVVTVPSSSLGTQTYICNVNHKPSNTKVDKKVEPKSCDKTHTCPPCPAPELLGGPSVFLFPPKPKDTLMISRTPEVTCVVVDVSHEDPEVKFNWYVDGVEVHNAKTKPREEQYNSTYRVVSVLTVLHQDWLNGKEYKCKVSNDALPMPIEETISKAKGQPREPQVYTLPPSRCELTKNQVSLSCAVKGFYPSDIAVEWESNGQPENNYKTTPPVLDSDGSFFLVSKLTVDKSRWQQGNVFSCSVMHEALHNHYTQKSLSLSP
light: DIQMTQSPSSLSASVGDRVTITCRASQDIHKYIAWYQQKPGQAPRLLIQYTSTLQPGVPSRFSGSGSGTDYTFTISSLQPEDIATYYCLQYEQLRTFGGGTKVEIKRTVAAPSVFIFPPSDEQLKSGTASVVCLLNNFYPREAKVQWKVDNALQSGNSQESVTEQDSKDSTYSLSSTLTLSKADYEKHKVYACEVTHQGLSSPVTKSFNRGEC
notes: anti-epiregulin heterodimerized IgG1; also called H240-Kn061 A231E
[1]
  relative KD: 1.4 ratio
[2]
  relative KD: 1.7 ratio
[3]
  relative KD: 2 ratio
[4]
  relative KD: 1.6 ratio
[5]
  relative KD: 1.8 ratio

B2: H240-Kn061/H240-Hl071/L73-k0 variant with A231V in H240-Kn061 (antibody, human IgG1, kappa)
heavy 1: QDQLVQSGAEVKKPGASVKVSCKASGFNIKDTYIQWVRQAPGQGLEWMGRIDPLRKQTKYREKFEGRVTITADTSTNTAYMELSSLRSEDTAVYYCVRSGREFDYWGQGTLVTVSSASTKGPSVFPLAPSSKSTSGGTAALGCLVKDYFPEPVTVSWNSGALTSGVHTFPAVLQSSGLYSLSSVVTVPSSSLGTQTYICNVNHKPSNTKVDKKVEPKSCDKTHTCPPCPVPEYYWGPSVFLFPPKPKDTLMISRTPEVTCVVVDVSDEDPEVKFNWYVDGVEVHNAKTKPREEQYNATYRVVSVLTVLHQDWLNGKEYKCKVSNKALPAPIEKTISKAKGQPREPQVCTLPPSRDELTKNQVSLWCLVKGFYPSDIAVEWESNGQPENNYKTTPPVLDSDGSFFLYSKLTVDKSRWQQGNVFSCSVMHEALHNHYTQKSLSLSP
heavy 2: QDQLVQSGAEVKKPGASVKVSCKASGFNIKDTYIQWVRQAPGQGLEWMGRIDPLRKQTKYREKFEGRVTITADTSTNTAYMELSSLRSEDTAVYYCVRSGREFDYWGQGTLVTVSSASTKGPSVFPLAPSSKSTSGGTAALGCLVKDYFPEPVTVSWNSGALTSGVHTFPAVLQSSGLYSLSSVVTVPSSSLGTQTYICNVNHKPSNTKVDKKVEPKSCDKTHTCPPCPAPELLGGPSVFLFPPKPKDTLMISRTPEVTCVVVDVSHEDPEVKFNWYVDGVEVHNAKTKPREEQYNSTYRVVSVLTVLHQDWLNGKEYKCKVSNDALPMPIEETISKAKGQPREPQVYTLPPSRCELTKNQVSLSCAVKGFYPSDIAVEWESNGQPENNYKTTPPVLDSDGSFFLVSKLTVDKSRWQQGNVFSCSVMHEALHNHYTQKSLSLSP
light: DIQMTQSPSSLSASVGDRVTITCRASQDIHKYIAWYQQKPGQAPRLLIQYTSTLQPGVPSRFSGSGSGTDYTFTISSLQPEDIATYYCLQYEQLRTFGGGTKVEIKRTVAAPSVFIFPPSDEQLKSGTASVVCLLNNFYPREAKVQWKVDNALQSGNSQESVTEQDSKDSTYSLSSTLTLSKADYEKHKVYACEVTHQGLSSPVTKSFNRGEC
notes: anti-epiregulin heterodimerized IgG1; also called H240-Kn061 A231V
[1]
  relative KD: 1.6 ratio
[2]
  relative KD: 1.6 ratio
[3]
  relative KD: 1.5 ratio
[4]
  relative KD: 1.6 ratio
[5]
  relative KD: 1.3 ratio

B3: H240-Kn061/H240-Hl071/L73-k0 variant with F241N in H240-Hl071 (antibody, human IgG1, kappa)
heavy 1: QDQLVQSGAEVKKPGASVKVSCKASGFNIKDTYIQWVRQAPGQGLEWMGRIDPLRKQTKYREKFEGRVTITADTSTNTAYMELSSLRSEDTAVYYCVRSGREFDYWGQGTLVTVSSASTKGPSVFPLAPSSKSTSGGTAALGCLVKDYFPEPVTVSWNSGALTSGVHTFPAVLQSSGLYSLSSVVTVPSSSLGTQTYICNVNHKPSNTKVDKKVEPKSCDKTHTCPPCPAPEYYWGPSVFLFPPKPKDTLMISRTPEVTCVVVDVSDEDPEVKFNWYVDGVEVHNAKTKPREEQYNATYRVVSVLTVLHQDWLNGKEYKCKVSNKALPAPIEKTISKAKGQPREPQVCTLPPSRDELTKNQVSLWCLVKGFYPSDIAVEWESNGQPENNYKTTPPVLDSDGSFFLYSKLTVDKSRWQQGNVFSCSVMHEALHNHYTQKSLSLSP
heavy 2: QDQLVQSGAEVKKPGASVKVSCKASGFNIKDTYIQWVRQAPGQGLEWMGRIDPLRKQTKYREKFEGRVTITADTSTNTAYMELSSLRSEDTAVYYCVRSGREFDYWGQGTLVTVSSASTKGPSVFPLAPSSKSTSGGTAALGCLVKDYFPEPVTVSWNSGALTSGVHTFPAVLQSSGLYSLSSVVTVPSSSLGTQTYICNVNHKPSNTKVDKKVEPKSCDKTHTCPPCPAPELLGGPSVNLFPPKPKDTLMISRTPEVTCVVVDVSHEDPEVKFNWYVDGVEVHNAKTKPREEQYNSTYRVVSVLTVLHQDWLNGKEYKCKVSNDALPMPIEETISKAKGQPREPQVYTLPPSRCELTKNQVSLSCAVKGFYPSDIAVEWESNGQPENNYKTTPPVLDSDGSFFLVSKLTVDKSRWQQGNVFSCSVMHEALHNHYTQKSLSLSP
light: DIQMTQSPSSLSASVGDRVTITCRASQDIHKYIAWYQQKPGQAPRLLIQYTSTLQPGVPSRFSGSGSGTDYTFTISSLQPEDIATYYCLQYEQLRTFGGGTKVEIKRTVAAPSVFIFPPSDEQLKSGTASVVCLLNNFYPREAKVQWKVDNALQSGNSQESVTEQDSKDSTYSLSSTLTLSKADYEKHKVYACEVTHQGLSSPVTKSFNRGEC
notes: anti-epiregulin heterodimerized IgG1; also called H240-Hl071 F241N
[1]
  relative KD: 1.1 ratio
[2]
  relative KD: 3.8 ratio
[3]
  relative KD: 0.7 ratio
[4]
  relative KD: 3.5 ratio
[5]
  relative KD: 0.8 ratio

B4: H240-Kn061/H240-Hl071/L73-k0 variant with A231Q in H240-Kn061 (antibody, human IgG1, kappa)
heavy 1: QDQLVQSGAEVKKPGASVKVSCKASGFNIKDTYIQWVRQAPGQGLEWMGRIDPLRKQTKYREKFEGRVTITADTSTNTAYMELSSLRSEDTAVYYCVRSGREFDYWGQGTLVTVSSASTKGPSVFPLAPSSKSTSGGTAALGCLVKDYFPEPVTVSWNSGALTSGVHTFPAVLQSSGLYSLSSVVTVPSSSLGTQTYICNVNHKPSNTKVDKKVEPKSCDKTHTCPPCPQPEYYWGPSVFLFPPKPKDTLMISRTPEVTCVVVDVSDEDPEVKFNWYVDGVEVHNAKTKPREEQYNATYRVVSVLTVLHQDWLNGKEYKCKVSNKALPAPIEKTISKAKGQPREPQVCTLPPSRDELTKNQVSLWCLVKGFYPSDIAVEWESNGQPENNYKTTPPVLDSDGSFFLYSKLTVDKSRWQQGNVFSCSVMHEALHNHYTQKSLSLSP
heavy 2: QDQLVQSGAEVKKPGASVKVSCKASGFNIKDTYIQWVRQAPGQGLEWMGRIDPLRKQTKYREKFEGRVTITADTSTNTAYMELSSLRSEDTAVYYCVRSGREFDYWGQGTLVTVSSASTKGPSVFPLAPSSKSTSGGTAALGCLVKDYFPEPVTVSWNSGALTSGVHTFPAVLQSSGLYSLSSVVTVPSSSLGTQTYICNVNHKPSNTKVDKKVEPKSCDKTHTCPPCPAPELLGGPSVFLFPPKPKDTLMISRTPEVTCVVVDVSHEDPEVKFNWYVDGVEVHNAKTKPREEQYNSTYRVVSVLTVLHQDWLNGKEYKCKVSNDALPMPIEETISKAKGQPREPQVYTLPPSRCELTKNQVSLSCAVKGFYPSDIAVEWESNGQPENNYKTTPPVLDSDGSFFLVSKLTVDKSRWQQGNVFSCSVMHEALHNHYTQKSLSLSP
light: DIQMTQSPSSLSASVGDRVTITCRASQDIHKYIAWYQQKPGQAPRLLIQYTSTLQPGVPSRFSGSGSGTDYTFTISSLQPEDIATYYCLQYEQLRTFGGGTKVEIKRTVAAPSVFIFPPSDEQLKSGTASVVCLLNNFYPREAKVQWKVDNALQSGNSQESVTEQDSKDSTYSLSSTLTLSKADYEKHKVYACEVTHQGLSSPVTKSFNRGEC
notes: anti-epiregulin heterodimerized IgG1; also called H240-Kn061 A231Q
[1]
  relative KD: 1.4 ratio
[2]
  relative KD: 1.5 ratio
[3]
  relative KD: 1.7 ratio
[4]
  relative KD: 1.5 ratio
[5]
  relative KD: 1.5 ratio
